The values that follow come from US20090068174A1, “THERAPEUTIC ALKALINE PROTEASE COMPOSITIONS AND USE IN FACILITATING THE TRANSPORT OF AGENTS ACROSS THE GASTROINTESTINAL MUCOSAL LINING” (Kansas University Medical Center Research Institute, Inc., priority 2007, published 2009).

The target of experiment [1] is T1, TNF-α (Mus musculus, UniProt P06804).
T1 sequence (P06804 80-235 limits assumed): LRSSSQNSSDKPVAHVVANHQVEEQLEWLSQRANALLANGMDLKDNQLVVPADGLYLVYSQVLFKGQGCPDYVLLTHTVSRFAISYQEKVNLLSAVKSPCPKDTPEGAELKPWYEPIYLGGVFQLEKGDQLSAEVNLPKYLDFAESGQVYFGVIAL
The experiment is described as follows: Protease-treated TNF-α injected i.p. into mice, activated caspase-3 in intestine. The following applies: TNF-α treated with protease for 2 h, intestine 1 h later. In kind it is in vivo. How it is done:
TNF-α was first treated either with PBS, AP or D for 2 h, the reaction mixtures were inactivated by the addition of FBS, and the cytokine-protease mixtures were injected i.p. into mice. (A) One hour later the mice were euthanized, samples of their intestines were collected and fixed, and tissue sections were analyzed by immunohistology for the expression of activated caspase-3. These are the results are shown in which data are expressed in two forms: (B) the frequency distributions of sections expressing different levels of activated caspase-3; and (C) the percentages of tissue sections in which 10% or more of the villi stained for activated caspase-3.
A series of experiments was performed in which the activation of caspase-3 within the intestine was measured. […] One hour later the mice were euthanized, samples of their intestines were collected and fixed, and tissue sections were analyzed by immunohistology for the expression of activated caspase-3 (FIG. 21-22). […]
Mice were injected i.p. with 5 ng of recombinant mouse TNF-α or protease-treated TNF-α, and 2 cm segments of their duodenums were collected 1 h later. […] The sections were first treated with rabbit antibody to activated (cleaved) mouse caspase-3, and bound antibody was detected using a Histostain-SP kit. […] At least 48 sections were analyzed in this fashion from each mouse.

The test system of experiment [2] is TNBS-induced colitis. The experiment in a line: Induction of IBD in the hapten (TNBS)-induced SJL mouse model. In kind it is in vivo. The following applies: SJL mice, i.p. and oral treatment. As for the experimental part: This example uses the TNBS model in the SJL mouse, a susceptible strain, comparing systemic versus oral administration of the alkaline protease as a prophylactic treatment of blocking the induction of gastrointestinal inflammation. Endpoint measurements can include histopathological evaluation and scoring of the lesions as known in the art.
SJL strain mice (Jackson Labs) can be lightly anesthetized, and a solution of 25-50 μg of TNBS in 100 μl 50% ethanol can be administered by enema. Initial studies can determine whether sufficient pathology is induced by a single injection or whether the two challenge protocol (day 0 and day 7) is preferable. Response parameters include: (a) body weight measured on days 0, 2, 4, 6, 8, and 10; (b) pathological scoring of lesions in the intestine on day 10 (0=no inflam; 1=low level leukocyte infiltration; 2=medium infiltration, vascular intensity with some wall thickening; 3=high level infiltration, vascular response and thickening; 4=transmural infiltration, loss of goblet cells); (c) and immunohistological staining for activated caspase-3 and TNF-α. Wall thickening can be measured, for instance, as described by Dohi et al. (1999) “Hapten-induced colitis is associated with colonic patch hypertrophy and T helper cell 2-type responses.” J Expt Med 189: 1169-79, which is incorporated by reference. […]

B1: Alkaline Protease: Aspergillus oryzae alkaline protease (oryzin), SEQ ID NO: 2, purified from the protease powder of Example 1 (protein, listed as Aspergillus oryzae)
chain: MQSIKRTLLLLGAILPAVLGAPVQETRRAAEKLPGKYIVTFKPGIDEAKIQEHTTWATNIHQRSLERRGATGGDLPVGIERNYKINKFAAYAGSFDDATIEEIRKNEDVAYVEEDQIYYLDGLTTQKSAPWGLGSISHKGQQSTDYIYDTSAGEGTYAYVVDSGVNVDHEEFEGRASKAYNAAGGQHVDSIGHGTHVSGTIAGKTYGIAKKASILSVKVFQGESSSTSVILDGFNWAANDIVSKKRTSKAAINMSLGGGYSKAFNDAVENAFEQGVLSVVAAGNENSDAGQTSPASAPDAITVAAIQKSNNRASFSNFGKVVDVFAPGQDILSAWIGSSSATNTISGTSMATPHIVGLSLYLAALENLDGPAAVTKRIKELATKDWKDVKGSPNLLAYNGNA
B1: the “Ability of protease-treated TNF-α to activate caspase-3 in intestinal epithelial cells” value in experiment [1] is “destroyed the ability of the cytokine to activate caspase-3”. Further, the “Weight loss and IBD induction by TNBS” value in experiment [2] was “can prevent and/or lessen weight loss and IBD induction by TNBS”.
